Results taken from patent US20120172293A1 (Takeda / Millennium, published 2012).

Experiments:
[1] = molecular target: human Y2 receptor (human) (UniProt P49146); assay: RBA: displacement of [125I]-PYY from hY2R/CHO membranes
[2] = molecular target: human Y2 receptor (human) (UniProt P49146); assay: cell-based or functional assay

human Y2 receptor (human), sequence (P49146 whole entry): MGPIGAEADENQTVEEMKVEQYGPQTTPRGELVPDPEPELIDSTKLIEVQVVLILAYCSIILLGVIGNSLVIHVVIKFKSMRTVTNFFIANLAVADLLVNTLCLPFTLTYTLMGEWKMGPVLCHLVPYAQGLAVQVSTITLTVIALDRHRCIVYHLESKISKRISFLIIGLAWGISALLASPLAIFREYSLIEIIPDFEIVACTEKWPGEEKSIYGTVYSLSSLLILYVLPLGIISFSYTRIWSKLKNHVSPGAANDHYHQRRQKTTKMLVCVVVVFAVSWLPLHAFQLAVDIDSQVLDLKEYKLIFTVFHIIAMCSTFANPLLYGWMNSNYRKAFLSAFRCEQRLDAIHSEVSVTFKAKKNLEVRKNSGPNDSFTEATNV

Row | Substance | IC50 Ratio (IC50 compound/IC50 PYY(3-36)) [1] | GBA EC50 Ratio ([35S]GTPγS binding) (EC50 compound/EC50 PYY(3-36)) [2]
1 | Ac-[D-Hyp24, Iva25, Pya(4)26, Cha27,36, Leu(Me)28, Lys30, Aib31]-PYY(23-36) (peptide) | 0.97 | 1.5
2 | Ac-[D-Pro24, Arg(Me)25, Pya(4)26, Cha27,36, Aib28,31, Lys30]-PYY(23-36) (peptide) | 1.1 | 1.3
3 | 3-Carboxypropionyl-[D-Pro24, Pya(4)26, Cha27,36, Aib28,31, Lys30]-PYY(23-36) (peptide) | 0.96 | 1.2
4 | Ac-[D-Pro24, Pya(4)26, Cha27, Aib28,31, Lys30, Phe(3Me)36]-PYY(23-36) (peptide) | 0.91 | 1.2
5 | Ac-[Dap22, D-Pro24, Pya(4)26, Cha27,36, Aib28,31, Lys30]-PYY(22-36) (peptide) | 1.2 | 1.6
6 | Ac-[D-Pro24, Cit25, Pya(4)26, Cha27,36, Aib28,31, Lys30]-PYY(23-36) (peptide) | 2.8 | 2.2
7 | Ac-[D-Pro24, Ala(4Pip)26, Cha27,36, Aib28,31, Lys30]-PYY(23-36) (peptide) | 1.2 | 1.5
8 | Ac-[D-Pro24, Pya(4)26, Cha27,36, Aib28,31, Lys(Hexyl)30]-PYY(23-36) (peptide) | 1 | 1.3
9 | 4-Imidazolecarbonyl-[D-Pro24, Pya(4)26, Cha27,36, Aib28,31, Lys30]-PYY(23-36) (peptide) | 0.76 | 1.1
10 | Ac-[D-Pro24, Pya(4)26, Cha27,36, Aib28,31, Lys(Ac)30]-PYY(23-36) (peptide) | 0.97 | 1.1
11 | (Tetrahydro-2H-pyran-4-yl)carbonyl-[D-Pro24, Pya(4)26, Cha27,36, Aib28,31, Lys30]-PYY(23-36) (peptide) | 1.1 | 0.71
12 | (2-amino-2-oxoethyl)carbamoyl-[D-Pro24, Pya(4)26, Cha27,36, Aib28,31, Lys30]-PYY(23-36) (peptide) | 1.2 | 0.74
13 | Ac-[D-Hyp24, Iva25,28, Pya(4)26, Cha27,36, Lys30, Aib31]-PYY(23-36) (peptide) | 0.86 | 1
14 | (3-Carboxypropyl)carbamoyl-[D-Hyp24, Iva25, Pya(4)26, Cha27,36, Leu(Me)28, Lys30, Aib31]-PYY(23-36) (peptide) | 0.57 | 1.7
15 | 2-Methylbutanoyl-[D-Pro24, Pya(4)26, Cha27,36, Aib28,31, Lys30]-PYY(23-36) (peptide) | 0.54 | 0.78
16 | Ac-[D-Pro24, Abu26, Cha27,36, Aib28,31, Lys30]-PYY(23-36) (peptide) | 2.3 | 0.98
17 | (cis-2,6-Dimethylmorpholin-4-yl)carbonyl-[D-Pro24, Pya(4)26, Cha27,36, Aib28,31, Lys30]-PYY(23-36) (peptide) | 0.91 | 0.65
18 | [(1S)-1-Carboxy-2-(4-hydroxyphenyl)ethyl]carbamoyl-[D-Pro24, Pya(4)26, Cha27,36, Aib28,31, Lys30]-PYY(23-36) (peptide) | 0.95 | 1.2
19 | Ac-[D-Pro24, Pya(4)26, Cha27,36, Iva28, Lys30, D-Iva31]-PYY(23-36) (peptide) | 0.36 | 0.67
20 | Ac-[D-Pro24, Pya(4)26, Cha27,36, D-Iva28, Lys30, Aib31]-PYY(23-36) (peptide) | 1.7 | 2.6
21 | Ac-[D-Hyp24, Pya(4)26, Cha27,36, Aib28,31, Lys30]-PYY(23-36) (peptide) | 1.1 | 0.86
22 | Ac-[D-Pro24, Pya(4)26, Cha27,36, Aib28,31, Arg(Me)30]-PYY(23-36) (peptide) | 1.1 | 1.2
23 | Ac-[D-Pro24, Pya(4)26, Cha27,36, D-Iva28,31, Lys30]-PYY(23-36) (peptide) | 0.7 | 1.6
24 | Ac-[D-Pro24, Pya(4)26, Ala(4Pip)27, Aib28,31, Lys30, Cha36]-PYY(23-36) later peak (peptide) | 3.8 | 3.9

Row | Substance | IC50 Ratio (IC50 compound/IC50 PYY(3-36)) [1] | GBA EC50 Ratio ([35S]GTPγS binding) (EC50 compound/EC50 PYY(3-36)) [2]
25 | 4-Pyridinecarbonyl-[D-Hyp24, Iva25, Pya(4)26, Cha27,36, Leu(Me)28, Lys30, Aib31]-PYY(23-36) (peptide) | 0.93 | 1.6
26 | Ac-[D-Pro24, Pya(4)26, Cha27,36, Aib28,31, Orn30]-PYY(23-36) (peptide) | 1.5 | 0.83
27 | [(1S)-1-Carboxyethyl]carbamoyl-[D-Pro24, Pya(4)26, Cha27,36, Aib28,31, Lys30]-PYY(23-36) (peptide) | 0.78 | 0.94
28 | Ac-[D-Pro24, Har25, Pya(4)26, Cha27,36, Aib28,31, Lys30]-PYY(23-36) (peptide) | 0.82 | 1.4
29 | Tetrahydro-2H-pyran-4-yl-carbamoyl-[D-Pro24, Pya(4)26, Cha27,36, Aib28,31, Lys30]-PYY(23-36) (peptide) | 0.52 | 0.61
30 | Ac-[D-Pro24, Pya(4)26, Cha27,36, Aib28,31, Nle30]-PYY(23-36) (peptide) | 0.96 | 1.4
31 | (Carboxymethyl)carbamoyl-[D-Pro24, Pya(4)26, Cha27,36, Aib28,31, Lys30]-PYY(23-36) (peptide) | 1.2 | 1.2
32 | Ac-[D-Pro24, Pya(4)26, Cha27,36, Iva28,31, Lys30]-PYY(23-36) (peptide) | 0.31 | 1
33 | Ac-[D-Pro24, Pya(4)26, Phe(4F)27, Aib28,31, Lys30, Cha36]-PYY(23-36) (peptide) | 10 | 3.9
34 | Ac-[D-Pro24, Pya(4)26, Cha27,36, Aib28,31, Lys(Me2)30]-PYY(23-36) (peptide) | 1.1 | 1.7
35 | Ac-[D-Pro24, Pya(4)26, Cha27, Aib28,31, Lys30, Phe(2,6-Me2)36]-PYY(23-36) (peptide) | 0.52 | 0.59
36 | [(1S)-1-carboxy-2-hydroxyethyl]carbamoyl-[D-Pro24, Pya(4)26, Cha27,36, Aib28,31, Lys30]-PYY(23-36) (peptide) | 0.52 | 1.3
37 | 4-Imidazolecarbonyl-[Aib24,28,31, Iva25, Pya(4)26, Cha27,36, Lys30]-PYY(23-36) (peptide) | 1.9 | 1.7
38 | Ac-[D-Hyp24, Iva25, Pya(4)26, Cha27,36, Aib28,31, Lys30]-PYY(23-36) (peptide) | 1.5 | 1.4
39 | Ac-[D-Pro24, Pya(4)26, Ala(4Pip)27, Aib28,31, Lys30, Cha36]-PYY(23-36) former peak (peptide) | 17 | 11
40 | Ac-[D-Pro24, Pya(4)26, Cha27,36, Aib28,31, Ala(4-pip)30]-PYY(23-36) (peptide) | 0.72 | 0.8
41 | (5-carboxypentyl)carbamoyl-[D-Pro24, Pya(4)26, Cha27,36, Aib28,31, Lys30]-PYY(23-36) (peptide) | 1.2 | 1.5
42 | Ac-[D-Pro24, Pya(4)26, Nal(2)27, Aib28,31, Lys30, Cha36]-PYY(23-36) (peptide) | 7.2 | 4
43 | Ac-[D-Pro24, Pya(4)26, Cha27,36, Aib28,31, Har30]-PYY(23-36) (peptide) | 0.36 | 0.79
44 | Ac-[D-Pro24, Pya(4)26, Cha27,36, Iva28, Lys30, Aib31]-PYY(23-36) (peptide) | 0.33 | 1.2
45 | Ac-[D-Pro24, Nar25, Pya(4)26, Cha27,36, Aib28,31, Lys30]-PYY(23-36) (peptide) | 1.1 | 1.8
46 | Morpholinocarbonyl-[D-Pro24, Pya(4)26, Cha27,36, Aib28,31, Lys30]-PYY(23-36) (peptide) | 0.89 | 0.57
47 | (3-carboxypropyl)carbamoyl-[D-Pro24, Pya(4)26, Cha27,36, Aib28,31, Lys30]-PYY(23-36) (peptide) | 1.2 | 0.97
